Source: patent US7842293B2, “Compositions and methods using anti-CS1 antibodies to treat multiple myeloma” (Facet Biotech Corporation, priority 2006, dated 2010)

Assays:
L363 cells = assay: In vivo mouse multiple myeloma xenograft model, L363 tumors; conditions: L363 tumor-bearing mice, HuLuc63 10 mg/kg twice weekly for three weeks
Procedure: (§1) Six- to eight-week old female IcrTac:ICR-Prkdcscid mice obtained from Taconic Farms (Germantown, N.Y.) were inoculated with 1×10^7 OPM2 or L363 cells (German Collection of Microorganisms and Cell Cultures, Braunschweig, Germany) into the lower right flank. Caliper measurements were performed twice weekly to calculate tumor volume using the following formula: L×W×H/2, where L (length) is the longest side of the tumor in the plane of the animal's back, W (width) is the longest measurement perpendicular to the length and in the same plane and H (height) is taken at the highest point perpendicular to the back of the animal. When tumors reached an average size of about 100 mm^3, animals were randomized into 3 groups of 8-10 mice each and were treated with 1 or 10 mg/kg of HuLuc63 or isotype control antibody administered intraperitoneally twice a week for a maximum of 6 doses.
(§2) Tumor growth was monitored for a period of 1-2 months. Animal work was carried out under NIH guidelines (“Guide for the Care and Use of Laboratory Animals”) using protocols approved by IACUC at PDL BioPharma.
(§3) CS1 protein expression was examined on the L363 multiple myeloma cell line. […] The combination of HuLuc63 with Thal was tested for anti-myeloma activity in vivo. L363 tumor-bearing mice were treated with HuLuc63, or isotype control antibody twice weekly for three weeks at 10 mg/kg. Thal was given 5 days a week at 50 mg/kg for a maximum of 15 doses to mice receiving either isotype control antibody or HuLuc63.
L363 tumor-bearing mice were treated with HuLuc63, or isotype control antibody twice weekly for three weeks at 10 mg/kg. Thal was given 5 days a week at 50 mg/kg for a maximum of 15 doses and Dex was given twice a week at 10 mg/kg for a maximum of 6 doses to mice receiving either isotype control antibody or HuLuc63.
To determine if an anti-angiogenic drug can enhance the antitumor effects of HuLuc63, a combination of HuLuc63 with Bevacizumab was tested for anti-myeloma activity in vivo, as described above. L363 tumor-bearing mice were treated with HuLuc63, or isotype control antibody twice weekly for three weeks at 10 mg/kg. Bevacizumab was given twice a week at 0.5 mg/kg for a maximum of 6 doses to mice receiving either isotype control antibody or HuLuc63.

CS1 [1] = assay: CS1 protein expression on L363 multiple myeloma cell line (flow cytometry); format: cell-based
Procedure: The effect of HuLuc63 and Thal treatment on the expression of CS1 in MM cell lines and mouse xenograft tumors was examined by flow cytometry and immunohistochemistry respectively, as described above.
as §3

myeloma tumor = conditions: myeloma mouse tumor model; from U.S. Patent Publication No. 2005/0025763; cited from earlier work
OPM2 cells = assay: In vivo mouse multiple myeloma xenograft model, OPM2 tumors; conditions: OPM2 tumor-bearing mice; HuLuc63 1 mg/kg (sub-optimal) twice weekly for three weeks; Dex 10 mg/kg twice a week; i.p.; FIG. 1
Procedure: as §1
Dex was administered intraperitoneally at a dose of 10 mg/kg twice a week for a maximum of 6 doses.
as §2
CS1 protein expression was examined on the OPM2 multiple myeloma cell line. […] The combination of HuLuc63 with Dex was tested for anti-myeloma activity in vivo. […]

myeloma cells = conditions: from U.S. Patent Publication No. 2005/0025763; cited from earlier work
CS1 [2] = assay: CS1 protein expression on OPM2 multiple myeloma cell line (flow cytometry); format: cell-based
Procedure: The effect of HuLuc63 and Dex treatment on the expression of CS1 in MM cell lines and mouse xenograft tumors was examined by flow cytometry and immunohistochemistry respectively.
CS1 protein expression was examined on the OPM2 multiple myeloma cell line. […] The combination of HuLuc63 with Dex was tested for anti-myeloma activity in vivo. OPM2 tumor-bearing mice were treated with sub-optimal doses of HuLuc63 (1 mg/kg), or isotype control antibody twice weekly for three weeks. Dex was given twice a week at 10 mg/kg to mice receiving either isotype control antibody or HuLuc63.

[3] = Thal 50 mg/kg 5 days a week, max 15 doses, FIG. 2
[4] = Bevacizumab 0.5 mg/kg twice a week, max 6 doses, FIG. 4

**Q.** Which results are given for O=C1CCC(N2C(=O)c3ccccc3C2=O)C(=O)N1 (centres unmarked) [Thal, Thalidomide, reference compound]?
**A.** anti-tumor activity (L363 cells; [3]): Significant anti-tumor activity; change in CS1 expression pre- or post-treatment (CS1 [1]): No significant change in CS1 expression

**Q.** With “Bevacizumab: monoclonal antibody that targets the endothelial growth factor VEGF [reference compound]” as the molecule, how does the anti-tumor activity (L363 cells; [4]) read?
**A.** did not exhibit significant anti-tumor activity

B1: HuLuc63: humanized recombinant monoclonal IgG1 antibody directed to human CS1; heavy chain variable region SEQ ID NO: 5, light chain variable region SEQ ID NO: 6 (antibody, listed as Homo sapiens, V domains shown)
VH: EVQLVESGGGLVQPGGSLRLSCAASGFDFSRYWMSWVRQAPGKGLEWIGEINPDSSTINYAPSLKDKFIISRDNAKNSLYLQMNSLRAEDTAVYYCARPDGNYWYFDVWGQGTLVTVSS
VL: DIQMTQSPSSLSASVGDRVTITCKASQDVGIAVAWYQQKPGKVPKLLIYWASTRHTGVPDRFSGSGSGTDFTLTISSLQPEDVATYYCQQYSSYPYTFGQGTKVEIK
**Q.** Which “reduction of tumor mass” value (myeloma tumor) does the source give for B1 here?
**A.** more than 50%

**Q.** What about the anti-tumor activity (OPM2 cells) of the same molecule?
**A.** significant anti-tumor activity

**Q.** And the “lysis of myeloma cells via ADCC” value (myeloma cells)?
**A.** effectively mediates lysis of myeloma cells

**Q.** What about the “change in CS1 expression pre- or post-treatment” value (CS1 [2]) of the same molecule?
**A.** No significant change in CS1 expression

**Q.** What about the anti-tumor activity (L363 cells; [4]) of the same molecule?
**A.** Significant anti-tumor activity

**Q.** What about the anti-tumor activity (L363 cells; [3]) of the same molecule?
**A.** Significant anti-tumor activity

**Q.** And the anti-tumor activity (L363 cells; Thal 50 mg/kg 5 days a week, Dex 10 mg/kg twice a week, FIG. 3)?
**A.** significant anti-tumor activity

**Q.** And the “change in CS1 expression pre- or post-treatment” value (CS1 [1])?
**A.** No significant change in CS1 expression
